Data on 30 substances can be found in paper PMC6222646, “HIV-1 Integrase-Targeted Short Peptides Derived from a Viral Protein R Sequence” (Molecules : A Journal of Synthetic Chemistry and Natural …, 2018).

For orientation: stoichiometry N means the number of molecules, sites or subunits per partner or assembly.

The target in the first assay is HIV-1 integrase (IN) (HIV-1).
Experiment: not given
As to peptide 6c (Ac-FIAFRIG-amide), the 3'-P IC50 (in vitro IN 3'-processing assay) was 94 µM and the ST IC50 (in vitro IN strand transfer assay) was determined as 3.5 µM.
Regarding peptide 7c (Ac-FAHFRIG-amide), the 3'-P IC50 (in vitro IN 3'-processing assay) is greater than 333 µM and the ST IC50 (in vitro IN strand transfer assay) was found to be 127 µM.
On the same counts, the results for peptide 1a (FIHFRIG) are 17.6 µM and 1.3 µM.
peptide 3b (FIHFRAG-amide) showed a 3'-P IC50 (in vitro IN 3'-processing assay) greater than 111 µM and an ST IC50 (in vitro IN strand transfer assay) greater than 111 µM.
Turning to peptide 5a (FIHARIG), the 3'-P IC50 (in vitro IN 3'-processing assay) was greater than 111 µM and the ST IC50 (in vitro IN strand transfer assay) was determined as 46.6 µM.
Consider peptide 7b (FAHFRIG-amide), for which the 3'-P IC50 (in vitro IN 3'-processing assay) was greater than 111 µM and the ST IC50 (in vitro IN strand transfer assay) was greater than 111 µM.
Consider peptide 5c (Ac-FIHARIG-amide), for which the 3'-P IC50 (in vitro IN 3'-processing assay) was greater than 333 µM and the ST IC50 (in vitro IN strand transfer assay) was 117 µM.
On the same counts, the results for peptide 2c (Ac-FIHFRIA-amide) are 74.5 µM and 30.4 µM.
peptide 2a (FIHFRIA) gave a 3'-P IC50 (in vitro IN 3'-processing assay) greater than 111 µM and an ST IC50 (in vitro IN strand transfer assay) of 34.7 µM.
Take peptide 8a (AIHFRIG): the 3'-P IC50 (in vitro IN 3'-processing assay) worked out at 86.3 µM and the ST IC50 (in vitro IN strand transfer assay) came to 22.7 µM.
peptide 5b (FIHARIG-amide) returned a 3'-P IC50 (in vitro IN 3'-processing assay) greater than 111 µM and an ST IC50 (in vitro IN strand transfer assay) greater than 111 µM.
peptide 2b (FIHFRIA-amide) showed a 3'-P IC50 (in vitro IN 3'-processing assay) greater than 111 µM and an ST IC50 (in vitro IN strand transfer assay) of 60.6 µM.
The substance peptide 4a (FIHFAIG) came in with a 3'-P IC50 (in vitro IN 3'-processing assay) greater than 111 µM and an ST IC50 (in vitro IN strand transfer assay) greater than 111 µM.
Substance peptide 12a (FIBFRIG) displayed a 3'-P IC50 (in vitro IN 3'-processing assay) of 6.5 µM and an ST IC50 (in vitro IN strand transfer assay) of 2.2 µM.
As to peptide 13a (FBHFRIG), the 3'-P IC50 (in vitro IN 3'-processing assay) stood at 37 µM and the ST IC50 (in vitro IN strand transfer assay) is 20 µM.
Take peptide 11a (FIHBRIG): the 3'-P IC50 (in vitro IN 3'-processing assay) amounted to 34 µM and the ST IC50 (in vitro IN strand transfer assay) was determined as 4.2 µM.
For peptide 4c (Ac-FIHFAIG-amide), the 3'-P IC50 (in vitro IN 3'-processing assay) was greater than 333 µM and the ST IC50 (in vitro IN strand transfer assay) worked out at 81 µM.
On the same counts, the results for peptide 6b (FIAFRIG-amide) are 95.4 µM and 35 µM.
The substance peptide 10a (FIHFBIG) had a 3'-P IC50 (in vitro IN 3'-processing assay) greater than 333 µM and an ST IC50 (in vitro IN strand transfer assay) of 48 µM.
On the same counts, the results for peptide 3c (Ac-FIHFRAG-amide) are 208 µM and 28 µM.
As to peptide 15 (Biotin-linker-BIHFRIG), the 3'-P IC50 (in vitro IN 3'-processing assay) is 32 µM and the ST IC50 (in vitro IN strand transfer assay) is 2.3 µM.
The substance peptide 14a (BIHFRIG) returned a 3'-P IC50 (in vitro IN 3'-processing assay) of 7.2 µM and an ST IC50 (in vitro IN strand transfer assay) of 2.1 µM.
As to peptide 4b (FIHFAIG-amide), the 3'-P IC50 (in vitro IN 3'-processing assay) is greater than 111 µM and the ST IC50 (in vitro IN strand transfer assay) was greater than 111 µM.
The substance peptide 3a (FIHFRAG) yielded a 3'-P IC50 (in vitro IN 3'-processing assay) of 66.5 µM and an ST IC50 (in vitro IN strand transfer assay) of 22.4 µM.
On the same counts, the results for peptide 8b (AIHFRIG-amide) are greater than 111 µM and greater than 111 µM.
As to peptide 6a (FIAFRIG), the 3'-P IC50 (in vitro IN 3'-processing assay) turned out to be 17.4 µM and the ST IC50 (in vitro IN strand transfer assay) came to 6.7 µM.
On the same counts, the results for peptide 7a (FAHFRIG) are greater than 111 µM and 73.5 µM.
Turning to peptide 8c (Ac-AIHFRIG-amide), the 3'-P IC50 (in vitro IN 3'-processing assay) is greater than 333 µM and the ST IC50 (in vitro IN strand transfer assay) came to 46 µM.
In turn, peptide 9a (FIHFRBG) registered a 3'-P IC50 (in vitro IN 3'-processing assay) of 20 µM and an ST IC50 (in vitro IN strand transfer assay) of 4.3 µM.

The target of the next assay is HIV-1 integrase (IN) (HIV-1).
Experiment: not given
This is another data set of the same source.
Substance “Vpr (69–75) peptide with the amino-terminal Phe (Vpr69) replaced with Glu (from UniProt P12520 69-75)” displayed a 3'-P IC50 (in vitro IN 3'-processing assay; data not shown) greater than 111 µM and an ST IC50 (in vitro IN strand transfer assay; data not shown) greater than 111 µM.

The target of another assay is HIV-1 integrase (IN) (HIV-1). Nature of the assay: cross-linking.
For peptide 15 (Biotin-linker-BIHFRIG), the stoichiometry N turned out to be 1.
